# Results published in patent US9176064B2, “Bisubstrate fluorescent probes for protein kinase CK2” (University of Tartu, priority 2012, dated 2015).
# Where a SMILES comes first, the peptide text is derived from it. [ ]: non-standard residue; d: D form. The star is where a group is joined. X1 = O=C(CCCCCCCn1cnc2c(Br)c(Br)c(Br)c(Br)c21)*
# Columns and labels:
# Experiment in all cases: Kinase panel residual activity
# Assay type in all cases: biochemical
# Details in all cases: compound at 1 micromolar
# CLK2 = CLK2 (Homo sapiens, UniProt P49760)
# CLK2, sequence (P49760 whole entry, species assumed): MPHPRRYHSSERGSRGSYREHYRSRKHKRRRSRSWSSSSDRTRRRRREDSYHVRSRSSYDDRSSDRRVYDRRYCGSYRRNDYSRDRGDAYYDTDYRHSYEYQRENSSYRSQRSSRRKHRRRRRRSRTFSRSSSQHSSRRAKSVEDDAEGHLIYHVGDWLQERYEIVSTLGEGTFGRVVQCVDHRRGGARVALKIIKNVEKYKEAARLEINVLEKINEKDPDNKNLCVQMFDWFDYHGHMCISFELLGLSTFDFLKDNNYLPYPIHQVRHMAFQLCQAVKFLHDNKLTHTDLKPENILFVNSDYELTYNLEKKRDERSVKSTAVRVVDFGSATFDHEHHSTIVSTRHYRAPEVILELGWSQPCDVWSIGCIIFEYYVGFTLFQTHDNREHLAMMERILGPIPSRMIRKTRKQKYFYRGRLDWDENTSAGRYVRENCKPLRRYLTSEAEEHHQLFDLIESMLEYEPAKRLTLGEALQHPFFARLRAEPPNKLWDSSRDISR
# HIPK1 = HIPK1 (Homo sapiens, UniProt Q86Z02)
# HIPK1, sequence (Q86Z02 whole entry, species assumed): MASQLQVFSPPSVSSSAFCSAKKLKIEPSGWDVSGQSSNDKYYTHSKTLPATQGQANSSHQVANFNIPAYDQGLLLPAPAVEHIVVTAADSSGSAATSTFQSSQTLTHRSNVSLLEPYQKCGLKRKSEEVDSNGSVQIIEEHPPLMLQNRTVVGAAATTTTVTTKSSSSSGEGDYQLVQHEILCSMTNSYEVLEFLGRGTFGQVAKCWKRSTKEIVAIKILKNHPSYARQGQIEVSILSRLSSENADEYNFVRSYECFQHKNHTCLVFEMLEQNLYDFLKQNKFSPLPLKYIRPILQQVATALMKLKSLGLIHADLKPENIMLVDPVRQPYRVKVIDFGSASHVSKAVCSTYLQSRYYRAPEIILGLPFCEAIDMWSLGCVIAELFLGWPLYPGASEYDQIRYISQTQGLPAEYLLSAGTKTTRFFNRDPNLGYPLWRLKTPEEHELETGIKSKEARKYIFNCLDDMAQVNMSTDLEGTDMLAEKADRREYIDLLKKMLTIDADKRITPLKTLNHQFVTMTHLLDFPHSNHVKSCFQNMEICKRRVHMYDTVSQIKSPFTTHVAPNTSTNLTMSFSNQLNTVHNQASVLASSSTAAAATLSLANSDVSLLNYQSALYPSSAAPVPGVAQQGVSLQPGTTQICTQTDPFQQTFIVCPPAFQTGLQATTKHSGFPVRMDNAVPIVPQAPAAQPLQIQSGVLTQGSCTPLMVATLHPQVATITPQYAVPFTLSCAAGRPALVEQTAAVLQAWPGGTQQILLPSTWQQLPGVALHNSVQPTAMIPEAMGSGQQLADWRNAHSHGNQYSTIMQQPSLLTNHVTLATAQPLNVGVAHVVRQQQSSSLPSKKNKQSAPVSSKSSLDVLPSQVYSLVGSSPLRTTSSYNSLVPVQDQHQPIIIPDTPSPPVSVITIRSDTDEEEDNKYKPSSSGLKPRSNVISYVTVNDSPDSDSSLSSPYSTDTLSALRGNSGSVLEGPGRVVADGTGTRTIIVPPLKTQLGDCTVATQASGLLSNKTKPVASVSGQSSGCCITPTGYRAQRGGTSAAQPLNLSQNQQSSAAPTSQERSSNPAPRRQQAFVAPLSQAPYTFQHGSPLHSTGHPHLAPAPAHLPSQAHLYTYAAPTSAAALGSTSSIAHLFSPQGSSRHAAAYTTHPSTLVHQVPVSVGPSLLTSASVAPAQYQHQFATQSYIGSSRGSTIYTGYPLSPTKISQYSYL
# BRSK2 = biological target: T1, BRSK2 (Homo sapiens, UniProt Q8IWQ3)
# T1 sequence (Q8IWQ3 1-736): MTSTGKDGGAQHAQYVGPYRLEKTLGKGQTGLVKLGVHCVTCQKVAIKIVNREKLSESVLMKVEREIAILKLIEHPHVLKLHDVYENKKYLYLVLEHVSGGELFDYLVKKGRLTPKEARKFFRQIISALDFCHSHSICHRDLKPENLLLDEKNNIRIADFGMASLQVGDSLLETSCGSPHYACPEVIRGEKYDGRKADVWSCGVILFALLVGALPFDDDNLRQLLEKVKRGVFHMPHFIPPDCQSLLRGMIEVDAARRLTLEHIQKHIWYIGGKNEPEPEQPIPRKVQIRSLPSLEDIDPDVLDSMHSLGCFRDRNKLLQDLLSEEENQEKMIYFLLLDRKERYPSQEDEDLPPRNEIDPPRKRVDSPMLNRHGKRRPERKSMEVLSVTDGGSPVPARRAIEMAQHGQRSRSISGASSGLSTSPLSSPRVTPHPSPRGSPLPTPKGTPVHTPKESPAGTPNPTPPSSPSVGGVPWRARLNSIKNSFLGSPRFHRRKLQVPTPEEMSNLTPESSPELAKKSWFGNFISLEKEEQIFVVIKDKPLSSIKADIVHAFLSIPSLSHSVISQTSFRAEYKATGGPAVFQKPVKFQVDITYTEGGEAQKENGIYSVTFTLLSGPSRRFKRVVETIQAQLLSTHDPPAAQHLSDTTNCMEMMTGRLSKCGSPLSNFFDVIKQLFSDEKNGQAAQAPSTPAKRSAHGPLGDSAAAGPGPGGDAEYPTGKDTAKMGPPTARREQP
# EF2K = EF2K (Homo sapiens, UniProt O00418)
# MARK1 = MARK1 (Homo sapiens, UniProt Q9P0L2)
# MARK1, sequence (Q9P0L2 whole entry, species assumed): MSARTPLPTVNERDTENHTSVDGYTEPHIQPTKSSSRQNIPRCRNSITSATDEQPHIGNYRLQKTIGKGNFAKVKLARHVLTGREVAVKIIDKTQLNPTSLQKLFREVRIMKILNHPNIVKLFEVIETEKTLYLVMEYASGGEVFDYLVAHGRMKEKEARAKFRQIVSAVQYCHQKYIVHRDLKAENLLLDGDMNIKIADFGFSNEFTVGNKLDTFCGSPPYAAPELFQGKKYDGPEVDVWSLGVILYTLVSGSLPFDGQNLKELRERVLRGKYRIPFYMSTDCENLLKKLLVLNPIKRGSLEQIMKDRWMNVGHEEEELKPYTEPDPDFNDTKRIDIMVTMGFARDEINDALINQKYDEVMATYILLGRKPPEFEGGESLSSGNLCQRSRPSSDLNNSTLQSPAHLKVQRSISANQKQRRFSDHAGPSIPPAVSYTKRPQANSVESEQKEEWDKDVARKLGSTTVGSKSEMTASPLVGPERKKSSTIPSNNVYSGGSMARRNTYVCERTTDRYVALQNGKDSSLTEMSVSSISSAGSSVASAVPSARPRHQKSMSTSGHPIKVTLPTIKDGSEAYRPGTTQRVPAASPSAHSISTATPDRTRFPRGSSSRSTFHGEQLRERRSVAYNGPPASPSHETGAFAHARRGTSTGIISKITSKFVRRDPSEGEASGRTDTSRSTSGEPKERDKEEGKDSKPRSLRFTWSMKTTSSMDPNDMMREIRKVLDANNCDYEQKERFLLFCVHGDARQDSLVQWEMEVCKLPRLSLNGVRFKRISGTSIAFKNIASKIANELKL
# MNK2 = MNK2 (Homo sapiens, UniProt Q9HBH9)
# MNK2, sequence (Q9HBH9 whole entry, species assumed): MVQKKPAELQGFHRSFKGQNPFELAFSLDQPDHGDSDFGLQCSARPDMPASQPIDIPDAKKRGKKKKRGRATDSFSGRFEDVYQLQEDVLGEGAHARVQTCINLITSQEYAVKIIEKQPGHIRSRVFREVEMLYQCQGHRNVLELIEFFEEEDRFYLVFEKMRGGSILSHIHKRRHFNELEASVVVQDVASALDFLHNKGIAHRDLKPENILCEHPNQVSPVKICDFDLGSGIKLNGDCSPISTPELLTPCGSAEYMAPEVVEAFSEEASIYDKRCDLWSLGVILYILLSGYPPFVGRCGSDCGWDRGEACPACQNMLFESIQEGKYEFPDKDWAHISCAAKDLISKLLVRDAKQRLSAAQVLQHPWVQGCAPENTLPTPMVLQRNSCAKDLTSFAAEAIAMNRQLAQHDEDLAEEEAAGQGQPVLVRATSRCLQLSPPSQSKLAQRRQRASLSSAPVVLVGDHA
# PRK2 = PRK2 (Homo sapiens, UniProt Q16513)
# PRK2, sequence (Q16513 whole entry, species assumed): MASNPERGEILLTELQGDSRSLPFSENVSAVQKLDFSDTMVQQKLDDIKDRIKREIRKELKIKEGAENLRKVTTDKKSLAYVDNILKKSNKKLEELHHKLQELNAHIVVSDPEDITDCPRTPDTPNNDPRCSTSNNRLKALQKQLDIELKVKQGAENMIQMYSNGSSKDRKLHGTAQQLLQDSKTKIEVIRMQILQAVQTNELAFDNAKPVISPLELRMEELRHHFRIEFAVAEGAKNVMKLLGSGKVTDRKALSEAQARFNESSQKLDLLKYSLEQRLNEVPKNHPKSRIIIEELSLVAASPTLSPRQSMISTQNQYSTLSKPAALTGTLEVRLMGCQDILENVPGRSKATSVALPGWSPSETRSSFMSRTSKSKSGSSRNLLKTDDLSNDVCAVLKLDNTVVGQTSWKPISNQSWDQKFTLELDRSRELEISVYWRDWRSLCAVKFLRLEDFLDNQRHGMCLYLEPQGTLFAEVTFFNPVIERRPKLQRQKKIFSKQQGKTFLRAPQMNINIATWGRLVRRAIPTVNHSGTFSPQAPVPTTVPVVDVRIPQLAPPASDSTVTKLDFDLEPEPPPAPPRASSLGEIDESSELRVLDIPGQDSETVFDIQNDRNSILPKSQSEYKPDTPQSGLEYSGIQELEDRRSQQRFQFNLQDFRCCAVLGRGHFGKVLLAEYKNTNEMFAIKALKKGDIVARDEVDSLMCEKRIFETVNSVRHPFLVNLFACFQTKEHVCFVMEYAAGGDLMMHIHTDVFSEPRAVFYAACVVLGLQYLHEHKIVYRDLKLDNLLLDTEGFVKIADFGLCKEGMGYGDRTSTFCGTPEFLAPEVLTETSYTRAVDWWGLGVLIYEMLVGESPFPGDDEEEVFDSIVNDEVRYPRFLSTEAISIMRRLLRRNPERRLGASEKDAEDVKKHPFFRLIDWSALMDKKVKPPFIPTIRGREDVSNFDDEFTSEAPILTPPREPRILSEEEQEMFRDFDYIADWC
# NEK2a = biological target: T2, NEK2a (Homo sapiens, UniProt P51955)
# T2 sequence (P51955 1-445): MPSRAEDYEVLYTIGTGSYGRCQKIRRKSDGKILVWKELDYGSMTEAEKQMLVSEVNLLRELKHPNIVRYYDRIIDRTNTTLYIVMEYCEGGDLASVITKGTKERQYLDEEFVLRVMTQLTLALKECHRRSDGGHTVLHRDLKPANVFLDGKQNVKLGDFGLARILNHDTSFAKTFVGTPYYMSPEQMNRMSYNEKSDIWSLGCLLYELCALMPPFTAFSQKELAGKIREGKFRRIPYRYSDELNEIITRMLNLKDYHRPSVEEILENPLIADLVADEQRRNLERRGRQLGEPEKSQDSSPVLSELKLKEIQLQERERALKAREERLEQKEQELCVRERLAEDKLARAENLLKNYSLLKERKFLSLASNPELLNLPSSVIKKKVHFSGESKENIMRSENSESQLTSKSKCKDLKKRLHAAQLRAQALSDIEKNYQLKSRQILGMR
# MNK1 = MNK1 (Homo sapiens, UniProt Q9BUB5)
# MNK1, sequence (Q9BUB5 whole entry, species assumed): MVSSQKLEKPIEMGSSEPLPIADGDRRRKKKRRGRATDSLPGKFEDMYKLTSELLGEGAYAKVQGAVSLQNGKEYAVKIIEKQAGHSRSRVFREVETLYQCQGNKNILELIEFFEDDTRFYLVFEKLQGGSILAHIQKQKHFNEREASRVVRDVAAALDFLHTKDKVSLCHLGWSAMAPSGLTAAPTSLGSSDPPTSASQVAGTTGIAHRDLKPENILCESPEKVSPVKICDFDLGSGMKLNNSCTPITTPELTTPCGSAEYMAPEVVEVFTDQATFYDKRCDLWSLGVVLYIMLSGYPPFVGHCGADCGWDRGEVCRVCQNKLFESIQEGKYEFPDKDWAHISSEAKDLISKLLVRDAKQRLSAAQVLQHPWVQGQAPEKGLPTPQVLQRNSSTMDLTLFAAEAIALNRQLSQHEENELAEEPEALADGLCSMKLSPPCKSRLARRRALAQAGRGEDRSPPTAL
# Aurora B = Aurora B (Homo sapiens, UniProt Q96GD4)
# Aurora B, sequence (Q96GD4 whole entry): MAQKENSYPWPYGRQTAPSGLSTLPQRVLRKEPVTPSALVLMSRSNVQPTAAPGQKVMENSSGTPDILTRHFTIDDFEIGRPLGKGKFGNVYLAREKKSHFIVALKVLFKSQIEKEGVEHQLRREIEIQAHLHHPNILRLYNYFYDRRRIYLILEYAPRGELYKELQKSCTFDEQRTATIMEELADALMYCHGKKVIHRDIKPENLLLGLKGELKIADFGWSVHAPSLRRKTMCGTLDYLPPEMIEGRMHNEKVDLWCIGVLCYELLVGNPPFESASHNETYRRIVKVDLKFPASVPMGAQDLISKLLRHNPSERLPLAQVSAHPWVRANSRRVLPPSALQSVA
# p38b MAPK = p38b MAPK (Homo sapiens, UniProt Q15759)
# OSR1 = OSR1 (Homo sapiens, UniProt O95747)
smiles,measurement,setting,value
NCCCC[C@H](NC(=O)[C@H](CC(=O)O)NC(=O)[C@H](CC(=O)O)NC(=O)[C@H](CC(=O)O)NC(=O)[C@H](CC(=O)O)NC(=O)[C@H](CC(=O)O)NC(=O)[C@@H](CC(=O)O)NC(=O)CCCCCCCn1cnc2c(Br)c(Br)c(Br)c(Br)c21)C(=O)O [TBBI-OcA-(D-Asp)-(L-Asp)5-(L-Lys)-OH] (X1-[dD]DDDDDK-OH),remaining activity at 1 µM,CLK2,24%
same,remaining activity at 1 µM,HIPK1,68%
same,remaining activity at 1 µM,BRSK2,75%
same,remaining activity at 1 µM,EF2K,80%
same,remaining activity at 1 µM,MARK1,83%
same,remaining activity at 1 µM,MNK2,89%
same,remaining activity at 1 µM,PRK2,92%
same,remaining activity at 1 µM,NEK2a,94%
same,remaining activity at 1 µM,MNK1,99%
same,remaining activity at 1 µM,Aurora B,100%
same,remaining activity at 1 µM,p38b MAPK,122%
same,remaining activity at 1 µM,OSR1,130%
